The record followed here is the supplement of paper PMC10567573.

B1: TSPAN10 (parent)
chain: EGCGPPLRRWLRANLAASGGYAIA
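Note: lentivirally expressed fusions sorted by FACS into six bins by GFP to DsRed ratio, PSI derived from sequencing read proportions per bin multiplied by bin number.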

The variants in this series derive from B1. Kind of series: protein stability index of a GFP-peptide fusion (GPS, HEK-293T) (PSI 1-6); higher = more stable. The following applies: c terminus: a fixed tail appended.
Turning to EGCGPPLRHWLRANLAASGGYAIA, the protein stability index came to 1.58. Then EGCGPPLRWWLRANLAASGGYAIA, with 1; and EGCGPPLRSWLRANLAASGGYAIA, with 2.33.

Regarding EGCGPPLRIWLRANLAASGGYAIA, the protein stability index worked out at 2.9.

Regarding EGCGPPLRYWLRANLAASGGYAIA, the protein stability index was 2.29. Consider EGCGPPLRMWLRANLAASGGYAIA, for which the protein stability index stood at 1.65.

On to EGCGPPLRCWLRANLAASGGYAIA, for which the protein stability index turned out to be 1.29.

On to EGCGPPLRPWLRANLAASGGYAIA, for which the protein stability index is 2.54. Regarding EGCGPPLRQWLRANLAASGGYAIA, the protein stability index is 1.81.

For the variant EGCGPPLRTWLRANLAASGGYAIA, the protein stability index worked out at 1.7.

EGCGPPLRKWLRANLAASGGYAIA: the protein stability index was found to be 1.79. With EGCGPPLRGWLRANLAASGGYAIA the figure was 1.25; with EGCGPPLRAWLRANLAASGGYAIA, 1.55; with EGCGPPLRVWLRANLAASGGYAIA, 1.65.

Consider EGCGPPLREWLRANLAASGGYAIA, for which the protein stability index came to 2.28. For the variant EGCGPPLRLWLRANLAASGGYAIA, the protein stability index came out at 1.05.

As for EGCGPPLRNWLRANLAASGGYAIA, the protein stability index amounted to 2.72. Take EGCGPPLRDWLRANLAASGGYAIA: the protein stability index amounted to 1.9. With EGCGPPCRRWLRANLAASGGYAIA the figure was 1.87; with EGCGPPARRWLRANLAASGGYAIA, 1.91. Turning to EGCGPPIRRWLRANLAASGGYAIA, the protein stability index was 1.39.

Regarding EGCGPPFRRWLRANLAASGGYAIA, the protein stability index was 1.4.

Consider EGCGPPHRRWLRANLAASGGYAIA, for which the protein stability index was 2.39.

On to EGCGPPDRRWLRANLAASGGYAIA, for which the protein stability index was 2.33. In the case of EGCGPPPRRWLRANLAASGGYAIA, the protein stability index came out at 2.27. As to EGCGPPERRWLRANLAASGGYAIA, the protein stability index was determined as 1.78. With EGCGPPNRRWLRANLAASGGYAIA the figure was 2.67. Take EGCGPPYRRWLRANLAASGGYAIA: the protein stability index amounted to 2. Regarding EGCGPPWRRWLRANLAASGGYAIA, the protein stability index was 2.05. On to EGCGPPSRRWLRANLAASGGYAIA, for which the protein stability index stood at 2.29. With EGCGPPVRRWLRANLAASGGYAIA the figure was 2.3; with EGCGPPMRRWLRANLAASGGYAIA, 2.39; with EGCGPPRRRWLRANLAASGGYAIA, 3.1.

Take EGCGPPGRRWLRANLAASGGYAIA: the protein stability index came to 1.82. Then EGCGPPQRRWLRANLAASGGYAIA, with 1.36; and EGCGPPTRRWLRANLAASGGYAIA, with 2.97. As to EGCGPPKRRWLRANLAASGGYAIA, the protein stability index turned out to be 1.97. Then EGCGTPLRRWLRANLAASGGYAIA, with 2.05; and EGCGGPLRRWLRANLAASGGYAIA, with 2.08. With EGCGRPLRRWLRANLAASGGYAIA, the protein stability index was 2.48.

For the variant EGCGNPLRRWLRANLAASGGYAIA, the protein stability index amounted to 2.02. Then EGCGFPLRRWLRANLAASGGYAIA, with 2.73; and EGCGHPLRRWLRANLAASGGYAIA, with 1.7. As for EGCGYPLRRWLRANLAASGGYAIA, the protein stability index stood at 1.6.

Turning to EGCGVPLRRWLRANLAASGGYAIA, the protein stability index is 2.15. With EGCGKPLRRWLRANLAASGGYAIA the figure was 2.03; with EGCGEPLRRWLRANLAASGGYAIA, 3.75; with EGCGMPLRRWLRANLAASGGYAIA, 1.65. With EGCGSPLRRWLRANLAASGGYAIA, the protein stability index came out at 1.44. With EGCGQPLRRWLRANLAASGGYAIA the figure was 1.79; with EGCGPPLKRWLRANLAASGGYAIA, 1.85; with EGCGPPLCRWLRANLAASGGYAIA, 1.53.

Consider EGCGPPLGRWLRANLAASGGYAIA, for which the protein stability index was found to be 1.71. EGCGPPLDRWLRANLAASGGYAIA: the protein stability index amounted to 1.47. With EGCGPPLPRWLRANLAASGGYAIA the figure was 1.46; with EGCGPPLVRWLRANLAASGGYAIA, 2.7; with EGCGPPLARWLRANLAASGGYAIA, 1.04. EGCGPPLNRWLRANLAASGGYAIA: the protein stability index came to 1.83.

Turning to EGCGPPLHRWLRANLAASGGYAIA, the protein stability index turned out to be 1.58. Then EGCGPPLSRWLRANLAASGGYAIA, with 1.7. Regarding EGCGPPLTRWLRANLAASGGYAIA, the protein stability index was found to be 1.71. In the case of EGCGPPLQRWLRANLAASGGYAIA, the protein stability index came to 2.05. On to EGCGPPLFRWLRANLAASGGYAIA, for which the protein stability index stood at 1.3.

In the case of EGCGPPLMRWLRANLAASGGYAIA, the protein stability index came to 2.16.

Regarding EGCGPPLWRWLRANLAASGGYAIA, the protein stability index was determined as 1.31. Take EGCGPPLLRWLRANLAASGGYAIA: the protein stability index came out at 1.37. EGCGPPLERWLRANLAASGGYAIA: the protein stability index was 1.26. Regarding EGCGPPLIRWLRANLAASGGYAIA, the protein stability index is 2.1. For the variant EGCGPPLRRDLRANLAASGGYAIA, the protein stability index is 3.25.

With EGCGPPLRRELRANLAASGGYAIA, the protein stability index turned out to be 3.4. Then EGCGPPLRRFLRANLAASGGYAIA, with 1.61; and EGCGPPLRRLLRANLAASGGYAIA, with 2.42; and EGCGPPLRRHLRANLAASGGYAIA, with 2.53.

EGCGPPLRRALRANLAASGGYAIA: the protein stability index was determined as 3.63.

Turning to EGCGPPLRRILRANLAASGGYAIA, the protein stability index was 2.94. As to EGCGPPLRRCLRANLAASGGYAIA, the protein stability index was 2.03. Then EGCGPPLRRKLRANLAASGGYAIA, with 2.09; and EGCGPPLRRGLRANLAASGGYAIA, with 3.35; and EGCGPWLRRWLRANLAASGGYAIA, with 1.5.

As to EGCGPVLRRWLRANLAASGGYAIA, the protein stability index was found to be 1.89. Then EGCGPALRRWLRANLAASGGYAIA, with 2.2; and EGCGPTLRRWLRANLAASGGYAIA, with 2.46. Turning to EGCGPKLRRWLRANLAASGGYAIA, the protein stability index came out at 1.97. On to EGCGPLLRRWLRANLAASGGYAIA, for which the protein stability index was determined as 1.03. As to EGCGPELRRWLRANLAASGGYAIA, the protein stability index amounted to 1.48.

Consider EGCGPQLRRWLRANLAASGGYAIA, for which the protein stability index turned out to be 1.89. As for EGCGPNLRRWLRANLAASGGYAIA, the protein stability index was determined as 2.29. EGCGPRLRRWLRANLAASGGYAIA: the protein stability index was found to be 1.95. On to EGCGPGLRRWLRANLAASGGYAIA, for which the protein stability index came out at 1.86. In the case of EGCGPDLRRWLRANLAASGGYAIA, the protein stability index is 1.94.

As to EGCGPHLRRWLRANLAASGGYAIA, the protein stability index was found to be 1.62. With EGCGPYLRRWLRANLAASGGYAIA the figure was 1.62; with EGCGPSLRRWLRANLAASGGYAIA, 1.72; with EGCGPMLRRWLRANLAASGGYAIA, 1.84.
